Assay results: article PMC8362889

Target: 2-azido-ATP (2-N3-ATP-biotin-long chain-hydrazone)
Experiment: photoaffinity labeling with 2-azido-ATP
Conditions: 2.0 μg of full-length AsphyA protein (∼0.16 μM), wild-type labeling at 100 μM set as 100%, read off a plot
[1] = 10 µM 2-azido-ATP, parent: est. 40
[2] = 20 µM 2-azido-ATP, parent: est. 63
[3] = 50 µM 2-azido-ATP, parent: est. 74
[4] = 100 µM 2-azido-ATP, parent: est. 100

Row | Substance | response [1] | response [2] | response [3] | response [4]
1 | Avena sativa phytochrome A, wild type, full-length recombinant protein with C-terminal strep-tag T418V | 82% | 120% | 140% | 140%
2 | Avena sativa phytochrome A, wild type, full-length recombinant protein with C-terminal strep-tag K411R | 91% | 120% | 140% | 150%
3 | Avena sativa phytochrome A, wild type, full-length recombinant protein with C-terminal strep-tag K411E | 61% | 75% | 92% | 110%
